Laboratory results from article doi:10.1101/2025.02.11.637337 (bioRxiv, 2025).

B1: Fr-H6(E53H/E56H/E57H/R59H/E60H/E63H) (natural protein, horse)
chain: SSQIRQNYSTEVEAAVNRLVNLYLRASYTYLSLGFYFDRDDVALEGVCHFFRHLAHHKHHGAHRLLKMQNQRGGRALFQDLQKPSQDEWGTTLDAMKAAIVLEKSLNQALLDLHALGSAQADPHLCDFLESHFLDEEVKLIKKMGDHLTNIQRLVGSQAGLGEYLFERLTLKHD
B2: Fr-H4ex(E53H/E57H/E60H/R64H) (natural protein, horse)
chain: SSQIRQNYSTEVEAAVNRLVNLYLRASYTYLSLGFYFDRDDVALEGVCHFFRHLAEHKRHGAEHLLKMQNQRGGRALFQDLQKPSQDEWGTTLDAMKAAIVLEKSLNQALLDLHALGSAQADPHLCDFLESHFLDEEVKLIKKMGDHLTNIQRLVGSQAGLGEYLFERLTLKHD
B3: Fr-H4in(R52H/E56H/R59H/E63H) (natural protein, horse)
chain: SSQIRQNYSTEVEAAVNRLVNLYLRASYTYLSLGFYFDRDDVALEGVCHFFHELAHEKHEGAHRLLKMQNQRGGRALFQDLQKPSQDEWGTTLDAMKAAIVLEKSLNQALLDLHALGSAQADPHLCDFLESHFLDEEVKLIKKMGDHLTNIQRLVGSQAGLGEYLFERLTLKHD
B4: Fr-H8(R52H/E53H/E56H/E57H/R59H/E60H/E63H/R64H) (natural protein, horse)
chain: SSQIRQNYSTEVEAAVNRLVNLYLRASYTYLSLGFYFDRDDVALEGVCHFFHHLAHHKHHGAHHLLKMQNQRGGRALFQDLQKPSQDEWGTTLDAMKAAIVLEKSLNQALLDLHALGSAQADPHLCDFLESHFLDEEVKLIKKMGDHLTNIQRLVGSQAGLGEYLFERLTLKHD
B5: Fr-H2(E53H/E57H) (natural protein, horse)
chain: SSQIRQNYSTEVEAAVNRLVNLYLRASYTYLSLGFYFDRDDVALEGVCHFFRHLAEHKREGAERLLKMQNQRGGRALFQDLQKPSQDEWGTTLDAMKAAIVLEKSLNQALLDLHALGSAQADPHLCDFLESHFLDEEVKLIKKMGDHLTNIQRLVGSQAGLGEYLFERLTLKHD

Legend:
crystal structure = target: the molecule itself; test: crystal structure
SEC + native gel or EMSA = target: the molecule itself; test: SEC + native gel or EMSA

Protein	stoichiometry N (crystal structure)	stoichiometry N (SEC + native gel or EMSA)
B1	24	
B2		24
B3		24
B4	24	
B5		24
